Source: patent US12679878B2, “CRF2 receptor agonists and their use in therapy” (SANOFI, priority 2020, dated 2026)
Starred links: 1 amine or outer side, 2 acyl side, 3 side chain; linkers in the order of their positions; H or OH if unused. Non-standard residues stand in square brackets, D forms with d. Groups on a side chain read outwards from the residue. No end group written: not given here. *: point of attachment. C18 diacid = O=C(O)CCCCCCCCCCCCCCCCC(=O)*; γGlu = O=C(O)[C@H](CCC(=O)[*:2])N[*:1]; Palmitoyl = CCCCCCCCCCCCCCCC(=O)*; AEEA = NCCOCCOCC(=O)O; Aib = CC(C)(N)C(=O)O

Molecular target: T1, CRF1R receptor (anti-target) (UniProt P34998 24-415, limits assumed)
T1 sequence (looked up): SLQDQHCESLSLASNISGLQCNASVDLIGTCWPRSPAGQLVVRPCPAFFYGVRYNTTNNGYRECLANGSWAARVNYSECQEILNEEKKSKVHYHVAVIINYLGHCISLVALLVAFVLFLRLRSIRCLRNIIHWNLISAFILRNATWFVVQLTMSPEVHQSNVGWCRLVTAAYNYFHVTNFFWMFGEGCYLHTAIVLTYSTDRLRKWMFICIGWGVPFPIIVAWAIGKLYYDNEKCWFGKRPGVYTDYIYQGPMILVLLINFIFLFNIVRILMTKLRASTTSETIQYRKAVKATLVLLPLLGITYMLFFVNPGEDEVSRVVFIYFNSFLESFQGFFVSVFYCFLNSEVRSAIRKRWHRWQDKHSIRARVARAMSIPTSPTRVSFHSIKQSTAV
Test: cell-based or functional assay

B1: peptide of SEQ ID NO: 27 (peptide)
peptide: IVLSLD[dV]PTKLK([γGlu-Palmitoyl])KKLLKQERKRKEREQAEKNARILERV-NH2
modifications: N-terminus assumed
SMILES: CCCCCCCCCCCCCCCC(=O)N[C@@H](CCC(=O)NCCCC[C@H](NC(=O)[C@H](CC(C)C)NC(=O)[C@H](CCCCN)NC(=O)[C@@H](NC(=O)[C@@H]1CCCN1C(=O)[C@H](NC(=O)[C@H](CC(=O)O)NC(=O)[C@H](CC(C)C)NC(=O)[C@H](CO)NC(=O)[C@H](CC(C)C)NC(=O)[C@@H](NC(=O)[C@@H](N)[C@@H](C)CC)C(C)C)C(C)C)[C@@H](C)O)C(=O)N[C@@H](CCCCN)C(=O)N[C@@H](CCCCN)C(=O)N[C@@H](CC(C)C)C(=O)N[C@@H](CC(C)C)C(=O)N[C@@H](CCCCN)C(=O)N[C@@H](CCC(N)=O)C(=O)N[C@@H](CCC(=O)O)C(=O)N[C@@H](CCCNC(=N)N)C(=O)N[C@@H](CCCCN)C(=O)N[C@@H](CCCNC(=N)N)C(=O)N[C@@H](CCCCN)C(=O)N[C@@H](CCC(=O)O)C(=O)N[C@@H](CCCNC(=N)N)C(=O)N[C@@H](CCC(=O)O)C(=O)N[C@@H](CCC(N)=O)C(=O)N[C@@H](C)C(=O)N[C@@H](CCC(=O)O)C(=O)N[C@@H](CCCCN)C(=O)N[C@@H](CC(N)=O)C(=O)N[C@@H](C)C(=O)N[C@@H](CCCNC(=N)N)C(=O)N[C@H](C(=O)N[C@@H](CC(C)C)C(=O)N[C@@H](CCC(=O)O)C(=O)N[C@@H](CCCNC(=N)N)C(=O)N[C@H](C(N)=O)C(C)C)[C@@H](C)CC)C(=O)O
- EC50 [nM] 0% HSA (cAMP, HTRF): > 100 nM
- Emax (%) (100% = Sauvagine at 100 nM): 34.2%

B2: peptide of SEQ ID NO: 26 (peptide)
peptide: IVLSLD[dV]PTKLK([γGlu-Palmitoyl])KKLLKQERKRKERE[Aib]AEKNARILERV-NH2
modifications: N-terminus assumed
SMILES: CCCCCCCCCCCCCCCC(=O)N[C@@H](CCC(=O)NCCCC[C@H](NC(=O)[C@H](CC(C)C)NC(=O)[C@H](CCCCN)NC(=O)[C@@H](NC(=O)[C@@H]1CCCN1C(=O)[C@H](NC(=O)[C@H](CC(=O)O)NC(=O)[C@H](CC(C)C)NC(=O)[C@H](CO)NC(=O)[C@H](CC(C)C)NC(=O)[C@@H](NC(=O)[C@@H](N)[C@@H](C)CC)C(C)C)C(C)C)[C@@H](C)O)C(=O)N[C@@H](CCCCN)C(=O)N[C@@H](CCCCN)C(=O)N[C@@H](CC(C)C)C(=O)N[C@@H](CC(C)C)C(=O)N[C@@H](CCCCN)C(=O)N[C@@H](CCC(N)=O)C(=O)N[C@@H](CCC(=O)O)C(=O)N[C@@H](CCCNC(=N)N)C(=O)N[C@@H](CCCCN)C(=O)N[C@@H](CCCNC(=N)N)C(=O)N[C@@H](CCCCN)C(=O)N[C@@H](CCC(=O)O)C(=O)N[C@@H](CCCNC(=N)N)C(=O)N[C@@H](CCC(=O)O)C(=O)NC(C)(C)C(=O)N[C@@H](C)C(=O)N[C@@H](CCC(=O)O)C(=O)N[C@@H](CCCCN)C(=O)N[C@@H](CC(N)=O)C(=O)N[C@@H](C)C(=O)N[C@@H](CCCNC(=N)N)C(=O)N[C@H](C(=O)N[C@@H](CC(C)C)C(=O)N[C@@H](CCC(=O)O)C(=O)N[C@@H](CCCNC(=N)N)C(=O)N[C@H](C(N)=O)C(C)C)[C@@H](C)CC)C(=O)O
- EC50 [nM] 0% HSA (cAMP, HTRF): > 100 nM
- Emax (%) (100% = Sauvagine at 100 nM): 0.6%

B3: peptide of SEQ ID NO: 28 (peptide)
peptide: IVLSLD[dV]PTKLK([γGlu-Palmitoyl])KKLLKQERKRKEREKAEKAARILERV-NH2
modifications: N-terminus assumed
SMILES: CCCCCCCCCCCCCCCC(=O)N[C@@H](CCC(=O)NCCCC[C@H](NC(=O)[C@H](CC(C)C)NC(=O)[C@H](CCCCN)NC(=O)[C@@H](NC(=O)[C@@H]1CCCN1C(=O)[C@H](NC(=O)[C@H](CC(=O)O)NC(=O)[C@H](CC(C)C)NC(=O)[C@H](CO)NC(=O)[C@H](CC(C)C)NC(=O)[C@@H](NC(=O)[C@@H](N)[C@@H](C)CC)C(C)C)C(C)C)[C@@H](C)O)C(=O)N[C@@H](CCCCN)C(=O)N[C@@H](CCCCN)C(=O)N[C@@H](CC(C)C)C(=O)N[C@@H](CC(C)C)C(=O)N[C@@H](CCCCN)C(=O)N[C@@H](CCC(N)=O)C(=O)N[C@@H](CCC(=O)O)C(=O)N[C@@H](CCCNC(=N)N)C(=O)N[C@@H](CCCCN)C(=O)N[C@@H](CCCNC(=N)N)C(=O)N[C@@H](CCCCN)C(=O)N[C@@H](CCC(=O)O)C(=O)N[C@@H](CCCNC(=N)N)C(=O)N[C@@H](CCC(=O)O)C(=O)N[C@@H](CCCCN)C(=O)N[C@@H](C)C(=O)N[C@@H](CCC(=O)O)C(=O)N[C@@H](CCCCN)C(=O)N[C@@H](C)C(=O)N[C@@H](C)C(=O)N[C@@H](CCCNC(=N)N)C(=O)N[C@H](C(=O)N[C@@H](CC(C)C)C(=O)N[C@@H](CCC(=O)O)C(=O)N[C@@H](CCCNC(=N)N)C(=O)N[C@H](C(N)=O)C(C)C)[C@@H](C)CC)C(=O)O
- EC50 [nM] 0% HSA (cAMP, HTRF): > 100 nM
- Emax (%) (100% = Sauvagine at 100 nM): 8.4%

B4: peptide of SEQ ID NO: 22 (peptide)
peptide: IVLSLDVPIKLK([AEEA-AEEA-γGlu-C18 diacid])QILLKQERQK[Aib]QRQKAEKNKQILAQV-NH2
modifications: N-terminus assumed
SMILES: CC[C@H](C)[C@H](N)C(=O)N[C@H](C(=O)N[C@@H](CC(C)C)C(=O)N[C@@H](CO)C(=O)N[C@@H](CC(C)C)C(=O)N[C@@H](CC(=O)O)C(=O)N[C@H](C(=O)N1CCC[C@H]1C(=O)N[C@H](C(=O)N[C@@H](CCCCN)C(=O)N[C@@H](CC(C)C)C(=O)N[C@@H](CCCCNC(=O)COCCOCCNC(=O)COCCOCCNC(=O)CC[C@H](NC(=O)CCCCCCCCCCCCCCCCC(=O)O)C(=O)O)C(=O)N[C@@H](CCC(N)=O)C(=O)N[C@H](C(=O)N[C@@H](CC(C)C)C(=O)N[C@@H](CC(C)C)C(=O)N[C@@H](CCCCN)C(=O)N[C@@H](CCC(N)=O)C(=O)N[C@@H](CCC(=O)O)C(=O)N[C@@H](CCCNC(=N)N)C(=O)N[C@@H](CCC(N)=O)C(=O)N[C@@H](CCCCN)C(=O)NC(C)(C)C(=O)N[C@@H](CCC(N)=O)C(=O)N[C@@H](CCCNC(=N)N)C(=O)N[C@@H](CCC(N)=O)C(=O)N[C@@H](CCCCN)C(=O)N[C@@H](C)C(=O)N[C@@H](CCC(=O)O)C(=O)N[C@@H](CCCCN)C(=O)N[C@@H](CC(N)=O)C(=O)N[C@@H](CCCCN)C(=O)N[C@@H](CCC(N)=O)C(=O)N[C@H](C(=O)N[C@@H](CC(C)C)C(=O)N[C@@H](C)C(=O)N[C@@H](CCC(N)=O)C(=O)N[C@H](C(N)=O)C(C)C)[C@@H](C)CC)[C@@H](C)CC)[C@@H](C)CC)C(C)C)C(C)C
- EC50 [nM] 0% HSA (cAMP, HTRF): > 100 nM
- Emax (%) (100% = Sauvagine at 100 nM): 1.2%

B5: peptide of SEQ ID NO: 25 (peptide)
peptide: IVLSLD[dV]PTKLK([γGlu-Palmitoyl])KKLLKQERKRKEREKAEKNARILERV-NH2
modifications: N-terminus assumed
SMILES: CCCCCCCCCCCCCCCC(=O)N[C@@H](CCC(=O)NCCCC[C@H](NC(=O)[C@H](CC(C)C)NC(=O)[C@H](CCCCN)NC(=O)[C@@H](NC(=O)[C@@H]1CCCN1C(=O)[C@H](NC(=O)[C@H](CC(=O)O)NC(=O)[C@H](CC(C)C)NC(=O)[C@H](CO)NC(=O)[C@H](CC(C)C)NC(=O)[C@@H](NC(=O)[C@@H](N)[C@@H](C)CC)C(C)C)C(C)C)[C@@H](C)O)C(=O)N[C@@H](CCCCN)C(=O)N[C@@H](CCCCN)C(=O)N[C@@H](CC(C)C)C(=O)N[C@@H](CC(C)C)C(=O)N[C@@H](CCCCN)C(=O)N[C@@H](CCC(N)=O)C(=O)N[C@@H](CCC(=O)O)C(=O)N[C@@H](CCCNC(=N)N)C(=O)N[C@@H](CCCCN)C(=O)N[C@@H](CCCNC(=N)N)C(=O)N[C@@H](CCCCN)C(=O)N[C@@H](CCC(=O)O)C(=O)N[C@@H](CCCNC(=N)N)C(=O)N[C@@H](CCC(=O)O)C(=O)N[C@@H](CCCCN)C(=O)N[C@@H](C)C(=O)N[C@@H](CCC(=O)O)C(=O)N[C@@H](CCCCN)C(=O)N[C@@H](CC(N)=O)C(=O)N[C@@H](C)C(=O)N[C@@H](CCCNC(=N)N)C(=O)N[C@H](C(=O)N[C@@H](CC(C)C)C(=O)N[C@@H](CCC(=O)O)C(=O)N[C@@H](CCCNC(=N)N)C(=O)N[C@H](C(N)=O)C(C)C)[C@@H](C)CC)C(=O)O
- EC50 [nM] 0% HSA (cAMP, HTRF): > 100 nM
- Emax (%) (100% = Sauvagine at 100 nM): 0.1%

B6: peptide of SEQ ID NO: 29 (peptide)
peptide: IVLSLD[dV]PTKLK([γGlu-Palmitoyl])KKLLKQERKRKERE[Aib]AEKAARILERV-NH2
modifications: N-terminus assumed
SMILES: CCCCCCCCCCCCCCCC(=O)N[C@@H](CCC(=O)NCCCC[C@H](NC(=O)[C@H](CC(C)C)NC(=O)[C@H](CCCCN)NC(=O)[C@@H](NC(=O)[C@@H]1CCCN1C(=O)[C@H](NC(=O)[C@H](CC(=O)O)NC(=O)[C@H](CC(C)C)NC(=O)[C@H](CO)NC(=O)[C@H](CC(C)C)NC(=O)[C@@H](NC(=O)[C@@H](N)[C@@H](C)CC)C(C)C)C(C)C)[C@@H](C)O)C(=O)N[C@@H](CCCCN)C(=O)N[C@@H](CCCCN)C(=O)N[C@@H](CC(C)C)C(=O)N[C@@H](CC(C)C)C(=O)N[C@@H](CCCCN)C(=O)N[C@@H](CCC(N)=O)C(=O)N[C@@H](CCC(=O)O)C(=O)N[C@@H](CCCNC(=N)N)C(=O)N[C@@H](CCCCN)C(=O)N[C@@H](CCCNC(=N)N)C(=O)N[C@@H](CCCCN)C(=O)N[C@@H](CCC(=O)O)C(=O)N[C@@H](CCCNC(=N)N)C(=O)N[C@@H](CCC(=O)O)C(=O)NC(C)(C)C(=O)N[C@@H](C)C(=O)N[C@@H](CCC(=O)O)C(=O)N[C@@H](CCCCN)C(=O)N[C@@H](C)C(=O)N[C@@H](C)C(=O)N[C@@H](CCCNC(=N)N)C(=O)N[C@H](C(=O)N[C@@H](CC(C)C)C(=O)N[C@@H](CCC(=O)O)C(=O)N[C@@H](CCCNC(=N)N)C(=O)N[C@H](C(N)=O)C(C)C)[C@@H](C)CC)C(=O)O
- EC50 [nM] 0% HSA (cAMP, HTRF): > 100 nM
- Emax (%) (100% = Sauvagine at 100 nM): 18.4%
